Here are results for 5 molecules from publication PMC8062120, “Molecular basis of F-actin regulation and sarcomere assembly via myotilin” (PLoS Biology, 2021).

The target of data set [1] is F-actin (rabbit skeletal muscle actin, polymerized) (rabbit, UniProt P68135 1-377). The data set is described as follows: co-sedimentation; F-actin co-sedimentation, conditions B2 (PIPES pH 6.8, 100 mM NaCl); fixed 6 μM myotilin fragment in 20 μl mixed with pre-polymerized F-actin (0 to 60 μM) in 20 μl; one site-specific binding fit; apparent Kd. Conditions: both partners purified.

Data set [2] concerns the molecule itself. The data set is described as follows: SAXS; batch SAXS at high or comparable concentrations; Ig1Ig2^250–444 up to 14.12 mg/ml, Ig1Ig2^250–498 up to 42.8 mg/ml, Ig1Ig2^220–452 up to 52 or 36.6 mg/ml, R405K up to 45.5 mg/ml; 20 mM HEPES, 150 mM NaCl, 5% glycerol, 1 mM DTT, pH 7.4 (one 220–452 set in 20 mM MES, 200 mM NaCl, pH 6.0); mass from I0, Rg, Dmax, P(r); monomer to dimer.

For data set [3], the target named is T1, Full-length myotilin with N-terminal thioredoxin tag (Trx-MYOT) (human, UniProt Q9UBF9 1-498).
T1 construct: myotilin, human, full length; source: E. coli B834 (DE3), purified (HisTrap FF, SEC); not shown: Trx, N-terminal, kept
T1 sequence (looked up): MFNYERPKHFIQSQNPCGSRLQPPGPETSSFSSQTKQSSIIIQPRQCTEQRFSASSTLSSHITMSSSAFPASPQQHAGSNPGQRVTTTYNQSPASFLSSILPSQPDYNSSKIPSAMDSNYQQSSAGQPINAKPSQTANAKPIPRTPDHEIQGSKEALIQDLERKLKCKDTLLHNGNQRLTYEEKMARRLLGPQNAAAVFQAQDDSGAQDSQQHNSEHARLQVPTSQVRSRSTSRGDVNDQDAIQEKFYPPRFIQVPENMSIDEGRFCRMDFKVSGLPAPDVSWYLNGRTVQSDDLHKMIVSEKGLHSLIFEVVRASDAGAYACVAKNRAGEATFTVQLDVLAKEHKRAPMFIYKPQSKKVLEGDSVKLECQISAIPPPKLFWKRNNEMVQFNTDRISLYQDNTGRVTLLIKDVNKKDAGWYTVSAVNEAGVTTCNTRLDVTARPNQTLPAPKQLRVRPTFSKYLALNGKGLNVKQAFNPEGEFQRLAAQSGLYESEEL
As to the kind of experiment: ITC; 25°C; 400 μM ACTN2-EF14 injected into the cell with 20 μM Trx-MYOT or Trx-MYOT-NEECK; 20 mM Hepes, 400 mM NaCl, 250 mM arginine, 5% glycerol, pH 7.5. The following applies: both partners purified. A general note: Isothermal titration calorimetry measures the heat released or taken up as one component is titrated into another.

B1: Myotilin Ig1Ig2^250–498 (domain or fragment)
chain: PRFIQVPENMSIDEGRFCRMDFKVSGLPAPDVSWYLNGRTVQSDDLHKMIVSEKGLHSLIFEVVRASDAGAYACVAKNRAGEATFTVQLDVLAKEHKRAPMFIYKPQSKKVLEGDSVKLECQISAIPPPKLFWKRNNEMVQFNTDRISLYQDNTGRVTLLIKDVNKKDAGWYTVSAVNEAGVTTCNTRLDVTARPNQTLPAPKQLRVRPTFSKYLALNGKGLNVKQAFNPEGEFQRLAAQSGLYESEEL
notes: source: E. coli B834 (DE3), purified (HisTrap, HRV-3C cleavage, Resource S cation exchange, SEC); not shown: His tag (from the HisTrap column)
Consider B1, for which the Kd in data set [1] is 1.2 ± 0.2 µM.

B2: Myotilin Ig1Ig2^220–452 (domain or fragment, human, UniProt Q9UBF9 220-452, looked up)
chain: LQVPTSQVRSRSTSRGDVNDQDAIQEKFYPPRFIQVPENMSIDEGRFCRMDFKVSGLPAPDVSWYLNGRTVQSDDLHKMIVSEKGLHSLIFEVVRASDAGAYACVAKNRAGEATFTVQLDVLAKEHKRAPMFIYKPQSKKVLEGDSVKLECQISAIPPPKLFWKRNNEMVQFNTDRISLYQDNTGRVTLLIKDVNKKDAGWYTVSAVNEAGVTTCNTRLDVTARPNQTLPAPK
notes: Dimer only at high concentration; monomeric at low concentrations; source: E. coli, purified (HisTrap, HRV-3C cleavage, SEC); not shown: His tag (from the HisTrap column)
A word on the stoichiometry N: it is the number of molecules, sites or subunits per partner or assembly. Take B2: the “stoichiometry N” value in data set [2] was found to be 2.

B3: Myotilin Ig1Ig2^185–454 (domain or fragment)
chain: MARRLLGPQNAAAVFQAQDDSGAQDSQQHNSEHARLQVPTSQVRSRSTSRGDVNDQDAIQEKFYPPRFIQVPENMSIDEGRFCRMDFKVSGLPAPDVSWYLNGRTVQSDDLHKMIVSEKGLHSLIFEVVRASDAGAYACVAKNRAGEATFTVQLDVLAKEHKRAPMFIYKPQSKKVLEGDSVKLECQISAIPPPKLFWKRNNEMVQFNTDRISLYQDNTGRVTLLIKDVNKKDAGWYTVSAVNEAGVTTCNTRLDVTARPNQTLPAPKQL
notes: limits determined by intact protein mass spectrometry of the final product; source: E. coli, purified (GSTrap FF, TEV cleavage, IMAC and GSTrap flow-through, SEC)
Consider B3, for which, in data set [1], the Kd amounted to 3 ± 0.6 µM.

B4: α-actinin-2 EF14 (ACTN2-EF14), CAMD encoding all 4 EF-hands (domain or fragment)
chain: DAKGITQEQMNEFRASFNHFDRRKNGLMDHEDFRACLISMGYDLGEAEFARIMTLVDPNGQGTVTFQSFIDFMTRETADTDTAEQVIASFRILASDKPYILAEELRRELPPDQAQYCIKRMPAYSGPGSVPGALDYAAFSSALYGESDL
modifications: His6-tag removed with HRV-3C protease; limits not printed (S3 Table), so taken by convention from just before EF-hand 1 (753) to the C-terminus
B4 returned a Kd in data set [3] of 4.2 ± 1.2 µM.

B5: Myotilin Ig1Ig2^185–498 (domain or fragment)
chain: MARRLLGPQNAAAVFQAQDDSGAQDSQQHNSEHARLQVPTSQVRSRSTSRGDVNDQDAIQEKFYPPRFIQVPENMSIDEGRFCRMDFKVSGLPAPDVSWYLNGRTVQSDDLHKMIVSEKGLHSLIFEVVRASDAGAYACVAKNRAGEATFTVQLDVLAKEHKRAPMFIYKPQSKKVLEGDSVKLECQISAIPPPKLFWKRNNEMVQFNTDRISLYQDNTGRVTLLIKDVNKKDAGWYTVSAVNEAGVTTCNTRLDVTARPNQTLPAPKQLRVRPTFSKYLALNGKGLNVKQAFNPEGEFQRLAAQSGLYESEEL
notes: source: E. coli C41 (DE3), purified (HisTrap FF, HRV-3C cleavage, StrepTrap HP, SEC)
As for B5, the Kd in data set [1] is 2 ± 0.4 µM.
